Assay results reported in a protein production outcome set (Wang et al. 2014).

Test: label from the status in PepcDB records

Sequence | protein production
MELKNVKDAFDRVTKKQKLCYSKTHEVVDKMSQEIDKALKTIQEDNHESVVADLKKTFEEIAPINLLEASQKEINGVLTKYPKALDKTLNPDISTAYRNVKFDTHTVHQILAQFFYRQGMYDVGDCFISETGEVKPESSVTKAFMEMNMILEAMKERDLGPALKWVASNSDKLKEAKSDLELKLHSLHFLEIAKDKTSEEAINYARKHFATYSADSCCFPEIQKLMCSLLWIRNLNKSPYSEFLSPVLWTNAAKELTRQYCILLGESPESPLSVTVAAGSQVLPTFLKYLNVLPEKRKEWQTMEQLLVPVELSEEYRFYSVFVCPVSKEHSSEDNPPMRLACGHVLCKQSINRMSRNGSRSFKCPYCPTDIDASQCKQLYF | failed
MELMIGRVVKSHGIRGEVAIEVTTEEPEIRFAQGEVLNGRQGGKEHSLTIASVRPHQNRLLVKFKEIADRTAADSLRGTRFFAAPLDDDVDDGFYDHELEGLAVIHGEEKIGEVSGVIHGPAQSLLEVTLESGKEVLIPFVHDIVPEVDLDAGTCVITPPEGLLELLEHHHHHH | not failed
MELPSFIFQAQENLVERPWGGEWIALLKGFRQSGIGESWEFSAHTSRPSTVLVKGQQLSMIELFSKHRDELLGRAAEKFSKFPILVRLIDAASPTQVHVHPSDKAAESLGEAEGGVESAWLVFNKGKAYAGFKEDVKIEELEEKLKEEDFDFKTLLNTFETTPYDTFVIRPGIPHAGEGLRVLEVSSNSTLAYFFNENDWEKVKKVLNTKKVEEFEVKGKKGMAETENFGLEVVDVTGTAEIKTGGVMNILYAAEGYFILRGKETADLHRGYSCLVPASTDSFTVESERGKIVRIYLKV | not failed
MELSINILNIIGILLEIGVSIYIIISEKKKSKNRNSEAENDLIQQTNNIINNTQGDNASFNYTNVLMQSKYQERAYREILNDLGDKKENKQKSKYGKKCSYLRKVINIVCLGIGGFWAFYYFDLMKITSFNTYLLNVLFQTIYTLATFILIFSLSNFVKLFLIHFKEYNYIVLRKIQLFLTTLFALLGATIWLYFDWRANFRPLFNMYTESSYYTLGIIMLGLVFYVFHQMAQSFLLNNIWVPKKAVKILFVSLIFSLIASICLFI | failed
MELTILILLLPFLSFLILGIGGKWMSHRTAGAIGTLILGAVVVLSYVTAFQYFSAPRLEDGTFATLIPYNFTWLPFTETLRFDLGILLDPISVMMLIVISTVSLMVHIYSFGYMKGETGFQRYYAFLSLFTMSMLGLVVATNIFQMYLFWELVGVSSYLLIGFYYTKPAAIAASKKAFIVTRFADLGFLIGILIYGYYGGTFGFTPDTVSLISGGASMLPLALGLMFIGGAGKSAMFPLHIWLPDAMEGPTPVSALIHAATMVVAGVYLVARMFPLFIAYAPDTLHMIAWVGAFTAFYAASVACVQSDIKRVLAFSTISQIGFMMVALGVCTSMDPHHGGLGYMASMFHLFTHAMFKALLFLGAGSIIHAVHSNEMSAMGGLRKYMPITHWTFLIACLAIAGIPPFSGFFSKDEILAACFQYSPAMGWVMTVIAAMTAFYMFRLYYGIFWGAEPPRASSHSDHSTPHGNLEAAPCRPHESPLAMTFPLIFLAVVTCLAGFIPFGHFISSNGESYSIHLDLSVAVTSVVIAIISIGIATWMYKNAKQPVANALAKRFNGLWTAAYHRFYIDDIYQFITHKIIFRCISTPIAWFDRHVVDGFFNFLAWATNTTSDEIRGLQSGQVQQYAYVFLCGALALILLLVL | failed
MEMDTMFLAILIGAGLIGISVVTSLISFRVGAPLLLVFLGVGLLAGQDGIGGIVFNDSGTAYFIGSLALAVILFDSGFSTRLQTFRLAAAPSIVLATLGVALTTALVAIPSHSLLGLSWEESALMGAVVGSTDAAAVFFLLRVGGILIRDRVRATLEVESSTNDPMAIFLTITLVELASAGGFSGEALSWGLGLAFVRQMGLGLLCGWIGGHLLVVGINRLRLEPALYPILGLALALFLFAAVSMVDGSGFLAIYVAGMVMGNRKMRGGPALRRFQEALTWLAQMTMFLTLGLFASPSTFIDVALPSVLIGLFLVFVARPVAVWLCLLPFGYDRNETAFVAWVGLRGAVSILLAILPIAAGLEHAQEMFNAAFIVVVTSLLLQGWTIRPMARWLGLVVPPRLGPVDKVELQLPYGGDHELLVYRIAKGSPVAEGERIPRWARPSLVVRDGRSMKVLDSGRPQPGDHVYIFSAPRHGALLDRLFARPTALSPADEAYFGDFSLDASRTMGELATLYGIKVPEGAQDTAVGEWLTQRLGGAPARGDRVVLPPIEIIVREMDNSTDVIRTIGLSLDPGEGRPRRVPMFHNARDIIGSVRDWRAARRRFAAKNS | failed
MEMEMINIRVLRFEPGVDEKPHLESYEIPSKEKMKVLDALQLINKIHGANIAFRSSCRAGQCGSCAVKMNGEVVLACRAEVEDGAIIEPIDLPVIKDLMVDRGEIEEKVKSMQLYLQASSEGIQRIRPEDYLDSKKLRGCIECFSCISSCPVIKESSEYAGPYFMRYLSKFAFDPRDTGDRAQEGVDKGLYCCTTCGKCAEVCPKELNVPGDAIEKLRAMACREGSGPLDAHRRIKKLISETGRSVDRIKDGFIESVGKNPGSRIGFFTGCLVDYRMPEVGMALLRVLREHGFDVDVPEGQVCCGSPMIRTGQVDIVEDLVEKNRKALRDYDTIITVCAGCGATLKKDYPRYGVKLNVLDISEFLADRIDTIKMKPVNMRVTYHDPCHLKRGQGVEFEPRKILRKIPGLEFVEMEKPDQCCGSGGGVKSGKPEVAEALGRKKADMIRELDVDAVVTICPFCQLHIRDSLDLAGLENVRVMNILELLDLAYSD | failed
MEMKKSGRSLKMIFTQYFATVSLAFIALLCLIWAIFVISLNTKLIIPANQTEQELHRLEDKIEKADTFQAKRLPKDTAYLLMTKDGKIKESNMSKNLQQQALASYSGNAVSPNDYGYFMVFKRQKEVCIVNYRLEAHYSVAWMNKYLPNVSLLGLILTGLGVLLVFTLVTILFARRLQRQLSPIIAATQKIAKQNLDFTVQSSDIKEFNQVLNSLDTMRAALRDSLMHSWQVEQEKQNQIAALTHDIKTPLTVIKGNTELLKQTELSETQEAFVGYSLKNIGQVETYLQQLSYLAKNSQLQDFHPEKIKVAAFLEELSQNSQALAATKDIKIQFVNNLSDAQLTTYWDKGLLARALMNIISNAVEHSPQGSQLQLVCHLENELFQLTCLDSGQGFSREALDKAKMQFFQDDTSRHDRKHSGLGLTIADNIIRLHGGSLSLSNDAKTASGRVDVVLPLAKM | failed
MEMMLGKTYREMVFWMAWIIIPFLMEIVPALGGFIILLRKRLSIKDKAFSGKLPQITIIVPVYNSEDTLKGCIESIYNSDYPSEFIDVMLVDNQSSDNSFKIFTRCQKEFDGLSLRYMNSKQGKSKALNMALFNSSGKYIIHIDSDGKLHKDAIKNMVTRFEGNPHVHCMTGVILTDKELIEKTKGSFFKLLRKCEFFEYAQAFLAGRNFESEVGSIYTLSGAFSAFRKSTILKTQLYNSETVSEDTQITFQVKKLLNQKVYLCENALFFVDPIEGFNKLYTQRQRWQRGELEVSHMFLRDGLKFGKGFVSDFMVRTLMYDHTFAFPRMIWYFALIFLVFMNYPIYLVVGSVAVIYLLYSLSAFLFYLNVISYLKKYKEVRSYYAKKFYLIFLMPMYNFGVFWIRFCGIINSIQLQGNWKTLNLTDEWRNFLGVFKRDFSVVFKVLNKLRQVVNNE | failed
MEMNVKTNSSPTAPKPSKQTGWRIWWSLLRPHTLTAAFVPVFIGTAYSMQVGGINQIHLPLFLMMLLACLLIQAATNMFNEYFDYKRGLDHEGSVGIGGAIVRDGIQPKTVLNLAFGFFGIAILLGVYICINSSWWLAAIGLVCMAVAYLYTGGPLPIAYTPFGELTAGLFMGVIIIGISFFIQTGTVTSEVILLSIPSSILIGAILLANNIRDLDGDKENGRKTLAILVGRERAVGVLASMFIVSYIWTIALIIVGIVSPWMLIVFLSAPKAFKATKGFIGKSIPMEMVPAMIATAKTNTIFGFLMGIGLLLGYFL | failed
MEMTKVTGKFDVKLTPENAYATGVGGVNLGRMALDKTFYGELEARSQGEMLSAMTAVKGSAGYVAIEQVVGKLCGRQGSFVLQHFGIMTDGQNRLHLEVVPHSGAGELTGLYGTMAISIENGQHFYEFSFCFEPASEVEG | not failed
MENAPLLFQLPDDDTLYQALLARDPAYEGFAFVGVKSTGVFCRLTCAARKPKRENTVFFGSIKGCVEAGFRACLRCRPLERAGVQEPWVQTLLEQLGRDPERRWYEDDLVAQGLDPSTVRRAFKRYFGVTFLEMARLRRMGQGMQQLASGEPVIEAQISAGFDSDSGFRHAFSRLAGQPPSNLRGRELLKVDWLQTPIGVMLAVADAQVLHLLEFFDRPALANELQNLQKSSGSSIGFGRFAPIDQIEAELQRYFAGEAVHFATPLAMSASPFTRTVWQALRAIPLGTTCSYAEVARQVGSPSAVRAVARANAANQISIVIACHRVIGADGSLTGYGGGLWRKRWLLEHERRLHHLQGASASGL | failed
MENDKHNNPKTIFIPDDIAEGIFHHLPIKSLARFKVLSKKWTSMIESTYFSHKRLIRTGLPTPNMKFLHISQHFTANFVEEYSNSITFLLETFSRDDQNNRKTFDESQNKTIQVLGSCDGLVLLRIHDDFRSIYLINPTTKEHMKLSPEFMQWPFTLSYLTPAMANKPWRQLSQSVLDYDISVKRMPSLAGFGKDIVKKSYKVVLIYTRYEIHDHEFKAKVLSLDNGEQRDVGFYDIHHCIFCDEQTSVYANGSLFWLTLKKLSQTSYQLLAIDLHTEEFRWILLPECDTKYATNIEMWNLNERLCLSDVLESSNLVVWSLHQEYPTEKWEKIYSIKIDVIRTNQLHEKFWMLGLAAAYFSNIRNRQDQVSFFRQRTISYLPTMISPSNLML | failed
MENEKLPYISVIIIAYNRKEFLLDAIKSALNQTLDREYYEIIVIKNFQDDTIDNFIKENNIKGIISENKSLGGKISEALYVSKGEIVSFLEDDDLFFPNKLREVYDIFISNPNLVYYHNNFIKTNNRLFEIDYSENKKNKKIFLKLIELNNIKTINYLISKKLIAFNMSAITIRKSYFNDCLDILENIRIAHDMCFFFCLSGKSDTSKEILIYDKPLSIWFIHNSWSNTSCDLEIKNFKNKNFTIAKETLNAIVYIFNEFCIKNNLYNFYDNKQPLCDYLKLTISARKSQLYLLNEYEININDIKLFFKFVTMRKSIYLSGAFILVLFGKFISKKLSTKIFLYISFLLNTI | failed
MENETGGKDREVVEAVTNSEPGNGDGFAKKGDSYDDKLPSENVDKHMENEANEKEKEEDGAADELCALQDALETTLFQHLSNYAQKQMLQKLRSLRAKERKELSGEWKSLLAQEALLKSKKYSFSAELANATFHTWEEETRRMVL | not failed
MENIPFLRASTVPVIEYLDELKEIDASHIYTNYGPINQRFEQTIMSGFFQNRGAVTTVANATLGLMAAIQLKKRKKGKYALMPSFTFPATPLAAIWCGLEPYFIDISIDDWYMDKTVLWDKIEELKEEVAIVVPYATFGSWMNLEEYEELEKKGVPVVVDAAPGFGLMNGGMHYGQDFSGMIIYSFHATKPFGIGEGGLIYSKNEEDIQRIKRMGNFGFDTNRECTMMGFNCKMSEYAAAIGIATMKKWDDKLKERTRISEWYKQLLQSNGLMKKGWQLQKTEAVIQQFMPILCPEEVRNKQVIEDLKKQKIEARLYFSPSCHQQVLFRNYKSTDLTRTNKIAKRIVSLPLWEGMTKEIVEQIVICLGQKVVSADE | not failed
MENIQDSVSEYTKDSAQKIDTDALYHEQMLKALYAGFGIRFCAFIIDLLIIFGVHSLILKPIYHFTNLDSAKLWIDYFSVGHLLDALVFYLYFVLMTKYFKQTLGKMICNIRVERMDRQQLTWTDVLFREWIGRIISGVFANLPYLVTIFTKKHRGIHDYFADTVVIKNKFEKFFYLK | failed
MENKEISYEIIDFSGETNVQFRTSVDPGSYIPTHWHRAIEIIYMQEGSLDVIVESESFTIYKGDCILVNGNVLHSTKCTAPNTAILLQIPLNFMEKYIPNLGQLIFLWDYRTEDPVKKTKLMMLKTTLEQLQVINDIQPDGYLLRFNSLIFELMFQLYHNFSVQVFPQDINHKKKEMDRLDP | not failed
